In assay [1] the target is full length (mature) cynomolgus monkey TSLP, recombinant (cynomolgus monkey). Nature of the assay: SPR, biotinylated TSLP on SA chip; all concentrations (footnote 2). For orientation: SPR reads the build-up and loss of mass on a sensor chip optically.
The target is the same in assay [2]. Nature of the assay: cell-based or functional assay.
Assay [3] shares this target. Nature of the assay: SPR, biotinylated TSLP on SA chip; value excluding 1000 nM concentration.
The target is the same in assay [4]. Nature of the assay: ELISA RBA, geometric mean.
For assay [5] the target is unchanged. Nature of the assay: SPR, biotinylated TSLP on SA chip (Biacore 4000).
Assay [6] shares this target. Nature of the assay: SPR with biotinylated TSLP; mean of two experiments.
Assay [7] has the same target. Nature of the assay: RBA, geometric mean (n = 2).
The target of assay [8] is pre-existing human anti-VK (HAVK) antibodies. Nature of the assay: MSD bridging immunoassay: biotinylated and ruthenylated dAb cross-linked by antibodies in 5% serum of healthy subjects; rate over donors.

“And” between values parts separate entries of the source, which are not always exact repeats. Equal entries are not always repeated.

B1: DOM30h-440-57 (protein)
VL: DIQMTQSPSSLSASVGDRVTITCRASRPIRNWLDWYQQKPGKAPELLIWGASHLQSGVPSRFSGSGSGTDFTLTISSLQPEDFATYYCMQIGDDPVTFGQGTKVEIKR
With B1, the Kd in assay [1] turned out to be 4.95 nM; in assay [3] it was 1.92 nM. Moreover, the pSTAT5 assay in SW756 cells, Geometric Mean IC50 in assay [2] was 1.6 nM. Besides, the IC50 in assay [4] stood at 0.36 nM.

B2: DOM30h-440-60 (protein)
VL: DIQMTQSPSSLSASVGDRVTITCRASRPIRNWLDWYQQKPGKAPKLLIWGASHLQSGVPSRFSGSGSGTDFTLTISSLQPEDFATYYCIQFGEDPVTFGQGTKVEIKR
Turning to B2, the Kd in assay [5] was 7.81 nM. In addition, the pSTAT5 assay in SW756 cells, Geometric Mean IC50 in assay [2] amounted to 11.2 nM. Moreover, in assay [4], the IC50 was 2.65 nM.

B3: DOM30h-440-63 (protein)
VL: DIQMTQSPSSLSASVGDRVTITCRASRPIRNWLDWYQQKPGKAPKLLIWGASHLQSGVPSRFSGSGSGTDFTLTISSLQPEDFATYYCMQIGSDPVTFGQGTKVEIKR
For the molecule B3, in assay [5], the Kd was 5.98 nM. For the same molecule, the pSTAT5 assay in SW756 cells, Geometric Mean IC50 in assay [2] amounted to 2.4 nM. The IC50 in assay [4] came to 0.83 nM.

B4: DOM30h-440-56 (protein)
VL: DIQMTQSPSSLSASVGDRVTITCRASRPIRNWLDWYQQKPGKAPKLLIWGASHLQSGVPSRFSGSGSGTDFTLTVSSLQPEDFATYYCMQIGEDPVTFGQGTKVEIKR
Turning to B4, in assay [5], the Kd was determined as 2.97 nM. The pSTAT5 assay in SW756 cells, Geometric Mean IC50 in assay [2] was determined as 4.74 nM. Also, the IC50 in assay [4] was 0.55 nM.

B5: DOM30h-440-54 (protein)
VL: DIQMTQSPSSLSASVGDRVTITCRASRPIRNWLDWYQQKPGKAPKLLIWGASHLQSGVPSRFSGSGSGTDFTLTISSLQPEDFATYYCWQLAFDPTTFGQGTKVEIKR
B5: in assay [5], the Kd turned out to be 6.24 nM. Moreover, the pSTAT5 assay in SW756 cells, Geometric Mean IC50 in assay [2] worked out at 2.45 nM. Moreover, the IC50 in assay [4] stood at 0.67 nM.

B6: DOM30h-440-55 (protein)
VL: DIQMTQSPSSLSASVGDRVTITCRASRPIRNWLDWYQQKPGKAPKLLIWGASHLQSGVPSRFSGSGSGTDFTLTISSLQPEDFATYYCVQIGEDPVTFGQGTKVEIKR
For B6, the Kd in assay [5] turned out to be 1.61 nM. Also, the pSTAT5 assay in SW756 cells, Geometric Mean IC50 in assay [2] was 3.12 nM. Moreover, the IC50 in assay [4] was determined as 0.55 nM.

B7: DOM30h-440-65 (protein)
VL: DIQMTQSPSSLSASVGDRVTITCRASRPIRNWLDWYQQKPGKAPKLLIWGASHLQSGVPSRFSGSGSGTDFTLTISSLQPEDFATYYCMQIGEDPVTFGQGTKVEIKR
As for B7, the Kd in assay [5] stood at 3.11 nM. Moreover, the pSTAT5 assay in SW756 cells, Geometric Mean IC50 in assay [2] was 3.8 nM. Further, the IC50 in assay [4] is 0.29 nM.

B8: DOM30h-440-58 (protein)
VL: DIQMTQSPSSLSASVGDRVTITCRASRPIRNWLDWYQQKPGKAPKLLIWGASHLQSGVPSRFSGSGSGTDFTLTISSLQPEDFATYYCLQIADDPVTFGQGTKVEIKR
On to B8, for which the Kd in assay [5] was found to be 3.42 nM. In addition, the pSTAT5 assay in SW756 cells, Geometric Mean IC50 in assay [2] stood at 3.43 nM. Moreover, the IC50 in assay [4] stood at 0.21 nM.

B9: DOM30h-440-64 (protein)
VL: DIQMTQSPSSLSASVGDRVTITCRASRPIRNWLDWYQQKPGKAPKLLIWGASHLQSGVPSRFSGSGSGTDFTLTISSLQPEDFATYYCLQIGEDPVTFGQGTKVEIKR
With B9, the Kd in assay [5] was 4.29 nM. Besides, in assay [2], the pSTAT5 assay in SW756 cells, Geometric Mean IC50 is 3.36 nM. Further, in assay [4], the IC50 turned out to be 0.87 nM.

B10: DOM30h-440-53 (protein)
VL: DIQMTQSPSSLSASVGDRVTITCRASRPIRNWLDWYQQKPGKAPKLLIWGASHLQSGVPSRFSGSGSGTDFTLTISSLQPEDFATYYCLQVGEDPVTFGQGTKVEIKR
B10: the Kd in assay [5] was determined as 5.79 nM. Also, the pSTAT5 assay in SW756 cells, Geometric Mean IC50 in assay [2] was determined as 7.28 nM. The IC50 in assay [4] came out at 1.3 nM.

B11: DOM30h-440-81/86 (protein)
VL: DIQMTQSPSSLSASVGDRVTITCRASRPIRNWLDWYQQKPGKAPKLLIWGASHLQSGVPSRFSGSGSGTDFTLTISSLQPEDFATYYCVQIGEDPVTFGQGTKVEIK
Consider B11, for which, in assay [6], the Kd is 0.511 nM and 0.51 nM; the koff is 0.000774 s⁻¹; the kon was 1.62e+06 M⁻¹ s⁻¹. Besides, the IC50 in assay [7] was found to be 2.05 nM. Besides, the Inhibition of TSLP-induced pSTAT5 in SW756 cells, Geometric Mean IC50 (n = 5) in assay [2] is 4 nM. The molecule further gave a frequency of sera giving a positive signal (above the assay cutpoint) in assay [8] of 6.7%.

As usually defined, the Kd is a measure of binding affinity in units of concentration. For orientation: IC50 means the concentration needed to halve the response being measured. A word on the koff: it is the rate constant with which the complex falls apart. Usually kon stands for the second-order rate constant of association.

Values taken from US20170260266A1.
